Test results reported in paper PMC6138665, “HUWE1 E3 ligase promotes PINK1/PARKIN-independent mitophagy by regulating AMBRA1 activation via IKKα” (Nature Communications, 2018).
Non-standard residues stand in square brackets, D forms with d. No end group written: not given here. pS = N[C@@H](COP(=O)(O)O)C(=O)O

B1: AMBRA1-LIR peptide, unphosphorylated (P0) (peptide)
peptide: EALNSGVEYYWDQLNET
notes: limits counted from S1014 as the fifth letter; also called unmodified AMBRA1-LIR; source: synthetic peptide, bought: GenScript
B2: AMBRA1-LIR peptide, S1014 phosphorylated (P1) (peptide)
peptide: EALN[pS]GVEYYWDQLNET
notes: limits counted from S1014 as the fifth letter; also called S1014-phosphorylated AMBRA1-LIR peptide; source: synthetic peptide, bought: GenScript

Columns and labels:
[1] = biological target: T1, GABARAP protein (recombinant) (UniProt O95166 1-117); test: ITC; peptides at 0.35 mM titrated into 0.015 mM LC3 and GABARAP proteins in 21 steps; MicroCal VP-ITC; 25 °C and 35 °C (the LC3B titrations of Fig. 4a at 35 °C); 50 mM Na2HPO4, 100 mM NaCl, pH 7.0; one-site binding model; conditions: both partners purified
T1 construct: GABARAP, one of the six mATG8 proteins; CSPs were mapped on PDB 1GNU; source: unlabelled or 15N-labelled
T1 sequence (O95166 whole entry): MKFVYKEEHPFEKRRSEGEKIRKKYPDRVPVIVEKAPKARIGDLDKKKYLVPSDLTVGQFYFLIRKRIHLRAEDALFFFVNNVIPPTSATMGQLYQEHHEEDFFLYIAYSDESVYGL

[2] = biological target: LC3B protein (recombinant) (UniProt Q9GZQ8 1-120); test: as above; conditions: both partners purified

Row | Binder | Kd [1] | Kd [2]
1 | B1 | ~40 µM | > 100 µM
2 | B2 | 21 µM | 53 µM
